{"source": "patent US20220204611A1", "about": "(Amgen, published 2022)", "binders": {"B1": {"name": "33B12 (antibody, V domains shown)", "VH": "EVQLVESGGALVQPGGSLRLSCAASGFTFSSFGMSWVRQAPGKGLEWVSYISKSSFTIYYADSVKGRFTISRDNAKNSFYLQMNSLRDEDTAVYYCAREGGLTMVRGVSSYGLDVWGQGTTVTVSS", "VL": "not shown", "notes": "human IgG2 from hybridoma"}, "B2": {"name": "26C10 (antibody, human IgG2, V domains shown)", "VH": "B1 VH with K53S, Y95F, A97V, L102I, L113M", "VL": "SFELTQPPSVSVSPGQTASITCSGDKLGDKYVCWYQQKPGQSPMLVIYQDTKRPSGIPERFSGSNSGNTATLTISGTQAMDEADYYCQAWDSSTVVFGGGTKLTVL", "notes": "human IgG2 from hybridoma"}, "B3": {"name": "24F4 (antibody, human IgG2, V domains shown)", "VH": "EVQLVQSGAEVKKPGESLKISCKGSGYTFTSYWIGWVRQMPGKGLEWMGIIYPGDSDTRYSPSFQGQVTISVDKSSSTAYLQWSSLKASDTAIYYCTRQAIAVTGLGGFDPWGQGTLVTVSS", "VL": "EIVLTQSPGTLSLSPGERATLSCRASQSVSSSYLAWYQQKPGQAPRLLIYGASSRATGIPDRFSGSGSGTDFTLTISRLEPEDFALYYCQQYDTSPFTFGPGTKVDIK", "notes": "human IgG2 from hybridoma"}, "B4": {"name": "16B8 (antibody, human IgG4, V domains shown)", "VH": "QVQLVQSGAEVKKPGASVKVSCKASGYTFTNYGISWVRQAPGQGLEWMGWISAYNGNTNYAQKLQGRVTMTTDTSTSTVYMELRSLRSDDTAVYYCARRGYSYGSFDYWGQGTLVTVSS", "VL": "DIQMTQSPSSVSASVGDRVTVTCRASQDINSWLAWYQQKPGKAPKLLIYAASSLQTGVPSRFSGSGSGTDFTLTISSLQPEDFATYSCQQSNSFPITFGQGTRLEIK", "notes": "human IgG4 (G4) from hybridoma"}}, "note": "Substitutions are numbered along the chain they refer to.", "data": [{"molecular_target": "T1, recombinant soluble human TREM2 protein (human TREM2 ECD-FlagHis) (human, UniProt Q9NZC2 19-174)", "T1 sequence": "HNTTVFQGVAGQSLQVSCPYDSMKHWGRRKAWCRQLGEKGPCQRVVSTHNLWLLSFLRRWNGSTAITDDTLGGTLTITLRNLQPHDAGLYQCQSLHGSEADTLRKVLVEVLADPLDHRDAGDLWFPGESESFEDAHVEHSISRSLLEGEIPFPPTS", "experiment": "Octet BLI binning; competitor: load Ab 24A10", "experimental": "(§1) Each of sixteen different anti-TREM2 antibodies produced from hybridomas were quantitated and loaded onto one of the anti-human Fc sensors at 5 μg/mL for 2 minutes (“Load Antibody”). The sensor was then blocked with 100 μg/mL of an irrelevant human IgG2 antibody for 5 minutes. […] Next, each of the sixteen different anti-TREM2 antibodies (“Sandwich Antibody”) was added to the sensor at 5 μg/mL and allowed to bind for 5 minutes. All assay buffers contained 10 mM Tris (pH 7.6), 0.1% Triton X-100, 150 mM NaCl, 1 mM CaCl₂, and 1 mg/mL BSA. The assay was conducted at 25° C. Experimental kinetic results were fit to a 1:1 binding model.\n(§2) However, if addition of the sandwich antibody produces a binding event, then the sandwich antibody binds to a different epitope on human TREM2 than the load antibody and the two antibodies are categorized into different epitope bins.", "values": [{"binder": "B1", "sandwich binding signal": 0.47}, {"binder": "B2", "sandwich binding signal": 0.541}, {"binder": "B3", "sandwich binding signal": 0.335}, {"binder": "B4", "sandwich binding signal": 0.423}]}, {"molecular_target": "T1, recombinant soluble human TREM2 protein …", "experiment": "Octet BLI binning; competitor: load Ab 26F2", "experimental": "as §1, §2", "values": [{"binder": "B1", "sandwich binding signal": 0.002}, {"binder": "B2", "sandwich binding signal": -0.015}, {"binder": "B3", "sandwich binding signal": 0.282}, {"binder": "B4", "sandwich binding signal": 0.031}]}, {"molecular_target": "T1, recombinant soluble human TREM2 protein …", "experiment": "Octet BLI binning; competitor: load Ab 6E7", "experimental": "as §1, §2", "values": [{"binder": "B1", "sandwich binding signal": 0.52}, {"binder": "B2", "sandwich binding signal": 0.594}, {"binder": "B3", "sandwich binding signal": -0.039}, {"binder": "B4", "sandwich binding signal": 0.504}]}, {"molecular_target": "T1, recombinant soluble human TREM2 protein …", "experiment": "Octet BLI binning; competitor: load Ab 25F12", "experimental": "as §1, §2", "values": [{"binder": "B1", "sandwich binding signal": 0.345}, {"binder": "B2", "sandwich binding signal": 0.418}, {"binder": "B3", "sandwich binding signal": 0.244}, {"binder": "B4", "sandwich binding signal": 0.399}]}, {"molecular_target": "T1, recombinant soluble human TREM2 protein …", "experiment": "Octet BLI binning; competitor: load Ab 10E3", "experimental": "as §1, §2", "values": [{"binder": "B1", "sandwich binding signal": 0.271}, {"binder": "B2", "sandwich binding signal": 0.285}, {"binder": "B3", "sandwich binding signal": -0.032}, {"binder": "B4", "sandwich binding signal": 0.28}]}, {"molecular_target": "T1, recombinant soluble human TREM2 protein …", "experiment": "Octet BLI binning; competitor: load Ab 24F4", "experimental": "as §1, §2", "values": [{"binder": "B1", "sandwich binding signal": 0.454}, {"binder": "B2", "sandwich binding signal": 0.552}, {"binder": "B3", "sandwich binding signal": 0.038}, {"binder": "B4", "sandwich binding signal": 0.454}]}, {"molecular_target": "T1, recombinant soluble human TREM2 protein …", "experiment": "Octet BLI binning; competitor: load Ab 16B8", "experimental": "as §1, §2", "values": [{"binder": "B1", "sandwich binding signal": -0.017}, {"binder": "B2", "sandwich binding signal": -0.031}, {"binder": "B3", "sandwich binding signal": 0.27}, {"binder": "B4", "sandwich binding signal": -0.009}]}, {"molecular_target": "T2, human TREM2 on cells (human, UniProt Q9NZC2 19-230)", "T2 sequence": "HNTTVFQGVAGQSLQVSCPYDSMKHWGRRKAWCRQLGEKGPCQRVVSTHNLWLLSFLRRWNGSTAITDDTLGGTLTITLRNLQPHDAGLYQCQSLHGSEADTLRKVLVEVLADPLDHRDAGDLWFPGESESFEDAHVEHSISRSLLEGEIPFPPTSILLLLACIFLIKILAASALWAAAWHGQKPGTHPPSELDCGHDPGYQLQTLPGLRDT", "experiment": "cell-based or functional assay", "units": {"pSyk EC50": "nM"}, "values": [{"binder": "B1", "pSyk EC50": 1}, {"binder": "B2", "pSyk EC50": 2.2}, {"binder": "B3", "pSyk EC50": 2.4}]}, {"molecular_target": "T3, soluble human TREM2 protein (TREM2 ECD-huIgG1 Fc fusion protein) (human, UniProt Q9NZC2 19-174, biotinylated)", "T3 construct": "also called biotinylated soluble human TREM2 protein", "T3 sequence": "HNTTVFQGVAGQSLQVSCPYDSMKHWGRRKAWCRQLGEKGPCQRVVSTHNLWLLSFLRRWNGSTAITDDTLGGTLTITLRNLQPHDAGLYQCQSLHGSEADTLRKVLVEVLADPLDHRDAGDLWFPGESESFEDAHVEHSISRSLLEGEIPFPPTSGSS", "experiment": "ELISA, hybridoma supernatant on captured biotinylated TREM2 ECD-Fc", "experimental": "Exhausted hybridoma supernatants were tested for binding to human TREM2 by ELISA. Briefly, neutravidin plates were generated by incubating a 384 well Corning Assay Plate 3702 with neutravidin (Thermo 3100B) at 10 μg/mL (40 μL/well) in 1× PBS at 4° C. overnight. The plates were washed with 1× PBS using a Biotek plate washer and then blocked with 1% milk/1× PBS (90 μL/well) at room temperature (RT) for 30 minutes. The plates were then washed again with 1× PBS using the plate washer. […] The plates were then incubated at RT for 1 hour to immobilize the TREM2 protein to the wells of the plates. Following the incubation, the plates were again washed with 1× PBS using the plate washer. 10 μL of each hybridoma supernatant to be tested and 40 μL of 1% milk/1× PBS (1:5 dilution) were added to each well of the plates and incubated at RT for 1 hour. Again, the plates were washed with 1× PBS using the plate washer. […] After the plates were washed with 1× PBS using the plate washer, 40 μL/well of TMB substrate (Neogen, lot #150114) was added to the plates and the plates were incubated at RT for 30 minutes. The reaction was quenched with 1N hydrochloric acid (40 uL/well) following the incubation period. OD readings at 450 nm were obtained with a plate reader.", "units": {"OD 450": "OD450"}, "values": [{"binder": "B1", "OD 450": 1.34}, {"binder": "B2", "OD 450": 1.59}, {"binder": "B4", "OD 450": 0.59}]}, {"molecular_target": "T1, recombinant soluble human TREM2 protein …", "experiment": "Octet BLI binning; competitor: load Ab 26C10", "experimental": "as §1, §2", "values": [{"binder": "B1", "sandwich binding signal": -0.009}, {"binder": "B2", "sandwich binding signal": -0.032}, {"binder": "B3", "sandwich binding signal": 0.346}, {"binder": "B4", "sandwich binding signal": 0.006}]}, {"molecular_target": "T1, recombinant soluble human TREM2 protein …", "experiment": "Octet BLI binning; competitor: load Ab 24G6", "experimental": "as §1, §2", "values": [{"binder": "B1", "sandwich binding signal": 0.388}, {"binder": "B2", "sandwich binding signal": 0.384}, {"binder": "B3", "sandwich binding signal": 0.251}, {"binder": "B4", "sandwich binding signal": 0.369}]}, {"molecular_target": "T2, human TREM2 on cells", "experiment": "cell-based or functional assay", "remark": "another data set of the same source", "units": {"Emax (% maximum activation compared to RnD antibody)": "%", "pSyk EC50, differentiated THP-1 cells": "nM"}, "values": [{"binder": "B1", "Emax (% maximum activation compared to RnD antibody)": 246, "pSyk EC50, differentiated THP-1 cells": 2.85}, {"binder": "B4", "Emax (% maximum activation compared to RnD antibody)": 140, "pSyk EC50, differentiated THP-1 cells": 0.418}]}, {"molecular_target": "T1, recombinant soluble human TREM2 protein …", "experiment": "Octet BLI binning; competitor: load Ab 13E7", "experimental": "as §1, §2", "values": [{"binder": "B1", "sandwich binding signal": 0.287}, {"binder": "B2", "sandwich binding signal": 0.323}, {"binder": "B3", "sandwich binding signal": -0.015}, {"binder": "B4", "sandwich binding signal": 0.312}]}, {"molecular_target": "T1, recombinant soluble human TREM2 protein …", "experiment": "Octet BLI binning; competitor: load Ab 26A10", "experimental": "as §1, §2", "values": [{"binder": "B1", "sandwich binding signal": 0.023}, {"binder": "B3", "sandwich binding signal": 0.319}, {"binder": "B4", "sandwich binding signal": 0.028}]}, {"molecular_target": "T1, recombinant soluble human TREM2 protein …", "experiment": "Octet BLI binning; competitor: load Ab 32E3", "experimental": "as §1, §2", "values": [{"binder": "B1", "sandwich binding signal": 0.384}, {"binder": "B2", "sandwich binding signal": 0.419}, {"binder": "B3", "sandwich binding signal": -0.001}, {"binder": "B4", "sandwich binding signal": 0.4}]}, {"molecular_target": "T1, recombinant soluble human TREM2 protein …", "experiment": "Octet BLI binning; competitor: load Ab 5E3", "experimental": "as §1, §2", "values": [{"binder": "B1", "sandwich binding signal": -0.015}, {"binder": "B2", "sandwich binding signal": -0.042}, {"binder": "B3", "sandwich binding signal": 0.311}, {"binder": "B4", "sandwich binding signal": -0.004}]}, {"molecular_target": "T1, recombinant soluble human TREM2 protein …", "experiment": "Octet BLI binning; competitor: load Ab 33B12", "experimental": "as §1, §2", "values": [{"binder": "B2", "sandwich binding signal": -0.033}, {"binder": "B3", "sandwich binding signal": 0.25}, {"binder": "B4", "sandwich binding signal": 0.007}]}]}
